According to patent US6610494B2, “Solid-phase activity assay for biologically active substance” (priority 1996, dated 2003):

Assays:
[1] = ELSA: hydrolysis of plate-bound biotinylated β-glucan by enzymes; assay type: biochemical; conditions: for Relative activity compared to lichenase (mean ± SD, n = 12): enzymes diluted to 5 U/mL per manufacturer values, 0.2 biotin-glucan diluted 1 to 50,000, hydrolysis 15 min, 22° C.
Description: Preparation of biotin-glucan conjugates. The technique is based on the principle that active aldehyde groups which is generated after sodium periodate oxidation of the hydroxyl group of the polysaccharide moiety, reacts with ethylenediamine to form an aminated polysaccharide. The Schiff bases that are formed are stabilized by reaction with sodium borohydride (Wong, 1991). The amine groups can then be conjugated to biotin using BNHS. In brief, 75 mg β-glucan was dissolved in 2 mL distilled water and 0.1 mL of 100 mM NaIO4 was then added. The reaction was protected from light and mixed for 0.5 hours at room temperature. The reaction mixture was treated with 1 mL ethylenediamine for 2 hours and unreacted reagents were removed by ethanol precipitation. This involved the addition of 8 mL of 95% (V/V) ethanol to the reaction mixture (3 mL), followed by mixing of the sample, centrifugation at 10000 g for 10 minutes at 0° C. and dissolving the pellet in 2 mL of distilled water. The preparations was washed three times. The washed precipitate was then dissolved in 2 mL distilled water, 5 mg of sodium borohydride were added and the reaction was allowed to proceed for 4 hours at 4° C. The washing steps as indicated above were repeated three times. The biotin ester (BNHS, 15 mg or 0.15 mg) was dissolved in 0.2 mL DMSO, the mixture was allowed to react at room temperature for 3 hours followed by three ethanol precipitations as described above. The final precipitate was dissolved in 3 mL distilled water, divided into aliquots and each aliquot of the BNHS-β-glucan complex was store frozen at […] in sealed polypropylene containers. The ratio of BNHS to β-glucan were 0.2 and 0.002 for the complexes that were synthesized from 15 mg or 0.15 mg BNHS and 75 mg β-glucan, respectively.
The microtitre plates were directly coated with 0.1 mL/well of the biotin-glucan complex diluted in 0.05 M carbonate-bicarbonate buffer (pH=9.6), and then left at room temperature for 1 hr and overnight at […] The usual dilutions of the 0.2 and 0.002 stock biotin-glucan complex were 50,000 and 100 fold, respectively. The plates were washed 3 times with PBS-T buffer and the emptied plates were stored in sealed containers at 0° C. for up to several months.
Test procedures. β-Glucanase (lichenase) was diluted with 20 mM sodium phosphate buffer (pH 6.5) to the desired concentration. The enzyme (100 μL) was added to each well in the biotin-glucan coated microtiter plate, the plate was sealed with a low evaporation lid, and the mixture was incubated for the desired period of time (from 1 to 30 minutes) and at the desired temperature (usually 22-24° C.). The reaction was stopped by emptying the plates followed by washing of the wells three times with pH 7.2 PBS-T. Blanks contained the incubation buffer without enzyme. Alkaline phosphatase-streptavidin (100 μg) diluted 1:1000 in pH 7.2 PBS was added to each well and incubated for 30 minutes at room temperature. The plates were washed six times with pH 7.2 PBS-T and dried at ambient temperature for approximately 10 to 20 minutes. Alkaline phosphatase substrate solution was then added to each well (100 μL) and the microtiter plates were incubated at room temperature for 30 minutes, or until absorbency of the well with no enzyme yielded a value of from 1.5 to 2.0 optical density units. The plates were read at 405 nm using a microtiter plate reader (Bio-Rad Laboratories Ltd., Mississauga, ON, Canada, Model 450).
Other procedures The method for preparing the arabinoxylan substrate was the same as used for β-glucan except the substrate was arabinoxylan rather than β-glucan. The BNHS to arabinoxylan ratio was 0.2 with the stock substrate being diluted 10,000 fold prior to being coated on the plate. The azo-barley-glucan method for the assay of β-glucanase was according to the procedure described by McCleary and Shameer (1987). The precision of the assay was studied using three concentration of enzyme (0.076, 2.1 and 160 mU)/well. […]

[2] = test system: trypsin (EC 3.4.21.4); assay: BEISA: competition of inhibitors or other substances for biotinylated trypsin against coated ovomucoid; assay type: binding
Description: Methods: NHS-biotin solution (5.5 mg in 200 ul dimethyl sulfoxide) and trypsin solution (15 mg in 1000 ul PBS) were mixed and reacted at room temperature for 3 hours with gently shaking. The unconjugated biotin was removed at 4° C. using minicon-15 concentrator (Amicon. Co.). The final volume was 1000 ul.
The 96-well microtiter plate (Falcon 3911) was coated with trypsin egg white inhibitor (ovomucoid, 4 ug/100 ul/well) at 370° C. overnight. The plate was washed once using PBST {[PBS, NaCl, 9.00; Na2HPO4, 1.15; NaH2PO4, 0.23 (g/l) pH 7.2] plus 0.05% Tween-20} and 200 ul of 5% skim milk was added to each well of the plate followed by incubation at 37° C. for 2 hours. The plate was rinsed twice with PBST and 50 ul of PBS was added to each well of the plate except for those in column one where 100 ul of PBS was added. Unlabelled trypsin (50 ul of 400 ug/ml) was added to the wells of the second column followed by successive double dilutions of trypsin in wells up to and including those in column 11. Biotinylated trypsin in PBS (50 ul of 1:3000 dilution of the stock to yield approximately 2 ug/100 ul/well) was added to each well except those in the first column followed by incubation at 37° C. for 1 hour. The final volume in each well was 100 ul. The blank set of wells with no trypsin (column 1) served as the negative control while the last set of wells (column 12) with biotinylated trypsin but no unlabelled trypsin served as the positive control. The plate was then washed three times with PBST and 100 ul of streptavidin-alkaline phosphatase (1:1000 in 50 mM bicarbonate buffer, pH 9.5) was added to each well of the plate and the plate was incubated at room temperature for 30 minutes. The plate was washed five times using PBST and 100 ul/well of p-nitrophenyl phosphate substrate (1 mg/ml in 10% diethanolamine buffer, pH 9.8) was added to the plate followed by incubation at ambient temperature for about 30 minutes. The absorbency was then read at 405 nm using a microplate reader (Bio-Rad laboratories Inc. Mississauga, ON, Canada, model 450). […]

[3] = test system: biotinylated α-casein; assay: Solid phase protease activity assay using biotinylated casein; assay type: biochemical; conditions: for Hydrolysis of biotin-casein by proteases / Sensitivity (amount of enzyme required to hydrolyse 10% of the biotinylated α-casein): optimal pH of each protease, 37° C., 30 minutes
Description: Preparation of biotinylated casein: 12 mg α-casein in 1 ml of 0.1 M pH 7.2 phosphate-buffer saline [PBS, NaCl, 9.00; Na2HPO4, 1.15; NaH2PO4, 0.23 (g/l)] was allowed to react with 3.6 mg NHS-biotin in 150 ul DMSO for 2 hours at room temperature with gently shaking.
Assay procedure for protease activity using biotinylated casein: The microtitre plates except for the first column of 8 wells were coated using biotinylated α-casein in PBS (0.13 ug/well/100 ul) and incubated for 2 hours at 37° C. The plates were washed three times with 0.1 M PBST (PBS with 0.05% Tween-20). Different concentrations of the enzyme solution as indicated in FIGS. 12-14 (100 ul) were diluted with the appropriate buffer (see Table 2). They were added in triplicate to the wells of a plate followed by incubating in a humid atmosphere at 37° C. for 30 minutes. The plate was washed three times using PBST to terminate the protease reaction. A streptavidin-alkaline phosphatase solution (100 ul/well, 1:1000 dilution in bicarbonate buffer pH 9.5) was added to all wells in the plate except for the first column of 8 wells (as blank) and the plate was incubated at room temperature for 30 minutes. The blank set of wells contained only PBS, no added enzyme and no coating with biotinylated casein. The reaction was stopped by emptying and washing the plate six times with PBST. The pNPP substrate (100 ul/well, 1 mg/ml in 10% diethanolamine buffer pH9.8) was added to each well of the plate followed by incubation at room temperature for about 20 minutes. The absorbency was then read at 405 nm using a microplate reader (Bio-Rad laboratories, Ltd, Mississauga, ON, Canada; model 450). The best sensitivity was obtained when the maximum absorbency was around 2.0 optical density units.

[4] = target: T1, β-glucanase (lichenase) (Bacillus subtilis, UniProt P04957); assay: Influence of exogenous β-glucan on β-glucanase activity in the ELSA; assay type: biochemical; conditions: 0.5 mU β-glucanase/well; 22° C., 15 minutes
T1 construct: purchased Megazyme Pty.Ltd. batch MLI 82001
Text: (§1) Other procedures The method for preparing the arabinoxylan substrate was the same as used for β-glucan except the substrate was arabinoxylan rather than β-glucan. The BNHS to arabinoxylan ratio was 0.2 with the stock substrate being diluted 10,000 fold prior to being coated on the plate. The azo-barley-glucan method for the assay of β-glucanase was according to the procedure described by McCleary and Shameer (1987). The precision of the assay was studied using three concentration of enzyme (0.076, 2.1 and 160 mU)/well. They were added (100 μl) to wells containing the 0.2 biotin-β-glucan diluted 1 to 50,000 and the mixture was incubated for 15 minutes at 22° C. Other procedures were as described above. The assay within the same titer plate was replicated 8 times. The entire assay was replicated 6 times. In the study on the effects that β-glucan had on enzyme activity, β-glucan (5.12 mg/mL) in 20 mM sodium phosphate buffer (pH6.5) was mixed with an equal volume of 0.2 U/mL of β-glucanase and hydrolysed at 40° C. for 60 minutes. The reaction was stopped by putting the enzyme solution in a boiling water bath for 15 minutes. The control sample contained β-glucan but was not incubated with enzyme and was not subjected to boiling. […]

[5] = Azo-barley glucan method for β-glucanase; assay type: biochemical
Text: as §1

[6] = ELSA for xylanase using biotin-arabinoxylan complex; assay type: biochemical
Text: as §1

## 1,4-β-D-glucan-4-glucanohydrolase [Cellulase]
[1]
  Relative activity compared to lichenase (mean ± SD, n = 12): 101 ± 7

## CC(C)C[C@H](NC(=O)N[C@H](C(=O)N[C@@H](CCC(N)=O)C(=O)N[C@@H](C)C=O)[C@@H]1CCNC(=N)N1)C(=O)O [elastatinal]
[2]
  Interference with the binding of labelled trypsin to trypsin inhibitor: did not interfere

## CC(=O)N[C@@H](CC(C)C)C(=O)N[C@@H](CC(C)C)C(=O)N[C@H](C=O)CCCNC(=N)N [leupeptin]
[2]; ovomucoid-coated plate 4 ug/100 ul/well, biotinylated trypsin about 2 ug/100 ul/well
  Concentration of inhibitor that could be detected: 0.03 to 1 µg/mL

## amylopectin 6-glycohydrolase [Pullulanase]
[1]
  Relative activity compared to lichenase (mean ± SD, n = 12): 1.8 ± 0.1

## bovine serum albumin (BSA): other protein tested for interference
[2]
  Interference with the binding of labelled trypsin to trypsin inhibitor: did not interfere

## elastase
[3]
  Hydrolysis of biotin-casein by proteases: Yes
  Sensitivity (amount of enzyme required to hydrolyse 10% of the biotinylated α-casein): 4.4 ng/100 ul/sample

## endo-1,4-β-D xylan xylanohydrolase [Endo-β-xylanase]
[1]
  Relative activity compared to lichenase (mean ± SD, n = 12): 2.1 ± 0.1

## pepsin
[3]
  Hydrolysis of biotin-casein by proteases: Yes
  Sensitivity (amount of enzyme required to hydrolyse 10% of the biotinylated α-casein): 641 ng/100 ul/sample

## β-glucan
[4]
  Amount of β-glucan in the well above which enzyme activity was reduced: exceeded 1 μg/well

B1: 1,4-D glucan glucanohydrolase (protein, UniProt P00690 16-511, looked up)
Pancreatic alpha-amylase: QYAPQTQSGRTSIVHLFEWRWVDIALECERYLGPKGFGGVQVSPPNENIVVTNPSRPWWERYQPVSYKLCTRSGNENEFRDMVTRCNNVGVRIYVDAVINHMCGSGAAAGTGTTCGSYCNPGNREFPAVPYSAWDFNDGKCKTASGGIESYNDPYQVRDCQLVGLLDLALEKDYVRSMIADYLNKLIDIGVAGFRIDASKHMWPGDIKAVLDKLHNLNTNWFPAGSRPFIFQEVIDLGGEAIQSSEYFGNGRVTEFKYGAKLGTVVRKWSGEKMSYLKNWGEGWGFMPSDRALVFVDNHDNQRGHGAGGASILTFWDARLYKVAVGFMLAHPYGFTRVMSSYRWARNFVNGQDVNDWIGPPNNNGVIKEVTINADTTCGNDWVCEHRWRQIRNMVWFRNVVDGQPFANWWANGSNQVAFGRGNRGFIVFNNDDWQLSSTLQTGLPGGTYCDVISGDKVGNSCTGIKVYVSSDGTAQFSISNSAEDPFIAIHAESKL
notes: EC 3.2.1.1 from porcine pancreas (Type 1-A)
[1]
  Relative activity compared to lichenase (mean ± SD, n = 12): 4.3 ± 0.2

B2: endo-1,3-1,4-β-D-glucan-4-glucanohydrolase (protein, UniProt P04957 29-242, looked up)
Beta-glucanase: QTGGSFFDPFNGYNSGFWQKADGYSNGNMFNCTWRANNVSMTSLGEMRLALTSPAYNKFDCGENRSVQTYGYGLYEVRMKPAKNTGIVSSFFTYTGPTDGTPWDEIDIEFLGKDTTKVQFNYYTNGAGNHEKIVDLGFDAANAYHTYAFDWQPNSIKWYVDGQLKHTATNQIPTTPGKIMMNLWNGTGVDEWLGSYNGVNPLYAHYDWVRYTKK
notes: EC 3.2.1.73 from Bacillus subtilis, Megazyme
[5]
  Detection range of the azo-barley glucan procedure: 10 to 100 mU/assay
[1]
  Detection range for the ELSA: 0.001 to 1 mU/assay
  Relative activity compared to lichenase (mean ± SD, n = 12): 100 ± 4
[6]
  Activity on biotin-arabinoxylan substrate: No activity

B3: papain: cysteine protease, EC 3.4.22.2 (protein, UniProt P00784 134-345, looked up)
Papain: IPEYVDWRQKGAVTPVKNQGSCGSCWAFSAVVTIEGIIKIRTGNLNEYSEQELLDCDRRSYGCNGGYPWSALQLVAQYGIHYRNTYPYEGVQRYCRSREKGPYAAKTDGVRQVQPYNEGALLYSIANQPVSVVLEAAGKDFQLYRGGIFVGPCGNKVDHAVAAVGYGPNYILIKNSWGTGWGENGYIRIKRGTGNSYGVCGLYTSSFYPVKN
[3]; 0.5 hour hydrolysis
  Sensitivity: amount of enzyme required to produce a 10% decrease in maximal absorbency: 700 ng/100 ul
[3]
  Hydrolysis of biotin-casein by proteases: Yes
  Sensitivity (amount of enzyme required to hydrolyse 10% of the biotinylated α-casein): 700 ng/100 ul/sample

B4: thermolysin: metaloprotease, EC 3.4.24.27 (protein, UniProt P00800 233-548, looked up)
Thermolysin: ITGTSTVGVGRGVLGDQKNINTTYSTYYYLQDNTRGNGIFTYDAKYRTTLPGSLWADADNQFFASYDAPAVDAHYYAGVTYDYYKNVHNRLSYDGNNAAIRSSVHYSQGYNNAFWNGSQMVYGDGDGQTFIPLSGGIDVVAHELTHAVTDYTAGLIYQNESGAINEAISDIFGTLVEFYANKNPDWEIGEDVYTPGISGDSLRSMSDPAKYGDPDHYSKRYTGTQDNGGVHINSGIINKAAYLISQGGTHYGVSVVGIGRDKLGKIFYRALTQYLTPTSNFSQLRAAAVQSATDLYGSTSQEVASVKQAFDAVGVK
[3]
  Hydrolysis of biotin-casein by proteases: Yes
  Sensitivity (amount of enzyme required to hydrolyse 10% of the biotinylated α-casein): 25 ng/100 ul/sample
